Assay results: publication PMC10585736

B1: Pol30p (PCNA), wild type, two-hybrid prey (pBL240-PCNA-Gal4AD) [S. cerevisiae] / Rrm3p, two-hybrid bait [S. cerevisiae] (parent)
chain 1: MLEAKFEEASLFKRIIDGFKDCVQLVNFQCKEDGIIAQAVDDSRVLLVSLEIGVEAFQEYRCDHPVTLGMDLTSLSKILRCGNNTDTLTLIADNTPDSIILLFEDTKKDRIAEYSLKLMDIDADFLKIEELQYDSTLSLPSSEFSKIVRDLSQLSDSINIMITKETIKFVADGDIGSGSVIIKPFVDMEHPETSIKLEMDQPVDLTFGAKYLLDIIKGSSLSDRVGIRLSSEAPALFQFDLKSGFLQFFLAPKFNDEE
chain 2: MFRSHASGNKKQWSKRSSNGSTPAASASGSHAYRQQTLSSFFMGCGKKSAAASKNSTTIIDLESGDEGNRNITAPPRPRLIRNNSSSLFSQSQGSFGDDDPDAEFKKLVDVPRLNSYKKSSRSLSMTSSLHKTASASTTQKTYHFDEDETLREVTSVKSNSRQLSFTSTINIEDSSMKLSTDSERPAKRSKPSMEFQGLKLTVPKKIKPLLRKTVSNMDSMNHRSASSPVVLTMEQERVVNLIVKKRTNVFYTGSAGTGKSVILQTIIRQLSSLYGKESIAITASTGLAAVTIGGSTLHKWSGIGIGNKTIDQLVKKIQSQKDLLAAWRYTKVLIIDEISMVDGNLLDKLEQIARRIRKNDDPFGGIQLVLTGDFFQLPPVAKKDEHNVVKFCFESEMWKRCIQKTILLTKVFRQQDNKLIDILNAIRYGELTVDIAKTIRNLNRDIDYADGIAPTELYATRREVELSNVKKLQSLPGDLYEFKAVDNAPERYQAILDSSLMVEKVVALKEDAQVMMLKNKPDVELVNGSLGKVLFFVTESLVVKMKEIYKIVDDEVVMDMRLVSRVIGNPLLKESKEFRQDLNARPLARLERLKILINYAVKISPHKEKFPYVRWTVGKNKYIHELMVPERFPIDIPRENVGLERTQIPLMLCWALSIHKAQGQTIQRLKVDLRRIFEAGQVYVALSRAVTMDTLQVLNFDPGKIRTNERVKDFYKRLETLK

Variants of: B1
Experiment: yeast two-hybrid (β-galactosidase)
Details: with Rrm3p, prey Pol30-8p, parent: 1.3, read off a plot

Row | Variant | response (U/mg of protein)
1 | chain 1 R61A D63A | 0.75

Same assay, conditions: with Rrm3p, prey Pol30-6p, parent: 1.3, read off a plot

Row | Variant | response (U/mg of protein)
2 | chain 1 D41A D42A | 0.58

Same assay, conditions: with Rrm3p, prey Pol30-79p, parent: 1.3, read off a plot

Row | Variant | response (U/mg of protein)
3 | chain 1 L126A I128A | 1.3
